Here are results for 2 molecules from US20230011234A1 (JOINT STOCK COMPANY BIOCAD, published 2023).

For orientation: Kd means the concentration at which binding is half-saturated. The low end stands for a tighter complex, the high end for a looser complex.

Test [1] addresses T1, PD-L1-Fc receptor (human, UniProt Q9NZQ7 19-238, limits assumed).
T1 construct: also called human PD-L1 receptor; not shown: Fc
The test is described as follows: BLI (OctetRed 96), PD-L1-Fc in solution, 1:1 model.

For test [2], the target named is T2, Human CD122/IL-2RB Protein (Fc Tag) (human, UniProt P14784 27-240).
T2 construct: No gamma chain is mentioned; also called human IL2βγ; human IL2βγ-Fc; not shown: Fc tag
T2 sequence (looked up): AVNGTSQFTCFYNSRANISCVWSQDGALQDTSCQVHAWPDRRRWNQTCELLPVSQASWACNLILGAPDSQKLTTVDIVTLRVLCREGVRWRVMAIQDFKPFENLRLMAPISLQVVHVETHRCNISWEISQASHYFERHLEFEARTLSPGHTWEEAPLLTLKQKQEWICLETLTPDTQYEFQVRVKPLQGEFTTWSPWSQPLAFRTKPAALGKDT
Put plainly: BLI (OctetRed 96), CD122/IL-2RB-Fc in solution; Response 0 and KD 0. The procedure: (§1) The affinity constants for binding of IL15SA bispecific immunocytokines (hereinafter referred to as anti-PD1-Fab-CK_IL15Ra_Hc_IL15CH1FcknobLALA anti-PD-L1-Fab-CK_IL15Ra_Hc_IL15CH1FcknobLALA) to IL2βγ and human PD-1/PD-L1 receptors were measured using OctetRed 96 according to the ForteBio instructions. AR2G biosensors were pre-rehydrated for an hour in mQ. After the activation of biosensors, the bispecific immunocytokines at a concentration of 25 μg/ml in acetate buffer pH4 were non-specifically (by NH₂ groups) immobilized onto the biosensor. The sensors were then immersed into wells containing Human CD122/IL-2RB Protein (Fc Tag) or PD-1-Fc receptor or PD-L1-Fc receptor (1 and 0.5 μg/ml) in PBS buffer supplemented with 0.1% Tween-20 and 0.1% BSA to associate the bispecific super-agonist and the test receptor. The sensors were then immersed in a buffer solution for a subsequent dissociation step.
(§2) The instrumental data, after subtracting a reference signal, were analyzed using Octet Data Analysis software (Version 8.0) in accordance with the standard procedure and using 1:1 interaction model.

In test [3] the target is T1, PD-L1-Fc receptor. The test is described as follows: BLI (OctetRed 96), PD-L1-Fc in solution; Response 0 and KD 0. The protocol:
as §1, §2

In a further test the target is T3, PD-1-Fc receptor (human, UniProt Q15116 25-167, limits assumed).
T3 construct: also called human PD-1 receptor; not shown: Fc
T3 sequence (Q15116 25-167 limits assumed): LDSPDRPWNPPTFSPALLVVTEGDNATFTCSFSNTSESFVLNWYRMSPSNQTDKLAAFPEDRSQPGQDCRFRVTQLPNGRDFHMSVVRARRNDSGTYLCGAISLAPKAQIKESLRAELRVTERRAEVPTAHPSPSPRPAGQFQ
The test is described as follows: BLI (OctetRed 96), PD-1-Fc in solution, 1:1 model. The procedure: as §1, §2

Test [4] has as its target PD-1 on Jurkat NFAT-FLuc PD-1 cells (UniProt Q15116 25-288, limits assumed). Put plainly: cell-based or functional assay.

T1 sequence (Q9NZQ7 19-238 limits assumed): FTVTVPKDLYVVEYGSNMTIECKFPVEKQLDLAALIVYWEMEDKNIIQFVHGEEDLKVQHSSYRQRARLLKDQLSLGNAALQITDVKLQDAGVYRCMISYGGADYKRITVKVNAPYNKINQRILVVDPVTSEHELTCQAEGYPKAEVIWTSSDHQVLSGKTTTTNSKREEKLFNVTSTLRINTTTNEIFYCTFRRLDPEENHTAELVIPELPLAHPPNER
Sequence of PD-1 on Jurkat NFAT-FLuc PD-1 cells (Q15116 25-288 limits assumed): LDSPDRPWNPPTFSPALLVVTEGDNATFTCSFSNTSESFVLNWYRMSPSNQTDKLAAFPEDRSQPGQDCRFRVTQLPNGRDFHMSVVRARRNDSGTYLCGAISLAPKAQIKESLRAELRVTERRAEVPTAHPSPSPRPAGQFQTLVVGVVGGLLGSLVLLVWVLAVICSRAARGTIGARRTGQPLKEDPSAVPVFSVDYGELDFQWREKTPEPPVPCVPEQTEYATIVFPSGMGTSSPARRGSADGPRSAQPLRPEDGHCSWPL

B1: BCD-135 (antibody)
chain 1: not shown
chain 2: QTVVTQEPSLSVSPGGTVTLTCGLSSGTVTAINYPGWYQQTPGQAPRTLIYNTNTRHSGVPDRFSGSISGNKAALTITGAQAEDEADYYCALYMGNGGHMFGGGTKLTVLGQPKAAPSVTLFPPSSEELQANKATLVCLISDFYPGAVTVAWKADSSPVKAGVETTTPSKQSNNKYAASSYLSLTPEQWKSHRSYSCQVTHEGSTVEKTVAPTECS
With B1, the Kd in the test with PD-L1-Fc receptor [1] is less than 0.001 nM.

B2: prolgolimab (antibody, V domains shown)
VH: QVQLVQSGGGLVQPGGSLRLSCAASGFTFSSYWMYWVRQVPGKGLEWVSAIDTGGGRTYYADSVKGRFAISRVNAKNTMYLQMNSLRAEDTAVYYCARDEGGGTGWGVLKDWPYGLDAWGQGTLVTVSS
VL: QPVLTQPLSVSVALGQTARITCGGNNIGSKNVHWYQQKPGQAPVLVIYRDSNRPSGIPERFSGSNSGNTATLTISRAQAGDEADYYCQVWDSSTAVFGTGTKLTVLQ
notes: also called Anti-PD-1 prologolimab; BCD100
For the molecule B2, the binding result in test [2] is “no binding (tested: 1 and 0.5 µg/ml)”; with PD-L1-Fc receptor [3] it was “no binding (tested: 1 and 0.5 µg/ml)”. This molecule also registered a Kd with PD-1-Fc receptor of 0.186 nM. Also, the “EC50; NFAT-luciferase luminescence (RLU x 10^-3) in co-culture of Jurkat NFAT-FLuc PD-1 cells and Raji PDL1 cells with aCD3/aTAA1 at 1 ng/ml; relief of PD-1/PDL1 inhibition” value in test [4] is 0.027 µg/mL.
